{"source": "paper PMC11633198", "about": "“Vibrio cholerae CsrA controls ToxR levels by increasing the stability and translation of toxR mRNA”", "binders": {"B1": {"name": "toxR 5'UTR (ssRNA)", "RNA": "GCAUUUUUAUCAAAGAAGAUAAAAAAACCAGUAAAGUCUGAGUGUUGGGACAGGGAGAUACUGGGACAUUAGAUGUUCGGAUUAGGACACAACUCAAAAGAGAUAUCGAUG"}}, "key": {"[1]": {"target": "T1, CsrA (Vibrio cholerae, UniProt Q9KUH3 1-65)", "T1 sequence (Q9KUH3 whole entry)": "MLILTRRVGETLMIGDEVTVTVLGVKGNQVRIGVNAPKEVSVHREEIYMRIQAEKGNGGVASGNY", "experiment": "EMSA; 1 nM RNA, 640 nM CsrA; also no binding when mixed with CsrB-right", "settings": "protein: recombinant; tags: N-terminal 6xHis removed by TEV protease; chain copies: 2; label: 3' biotin; hairpin (mfold)"}, "[2]": {"target": "T1, CsrA", "experiment": "EMSA; 1 nM RNA, 640 nM CsrA; also no binding when mixed with CsrB-left", "settings": "protein: recombinant; tags: N-terminal 6xHis removed by TEV protease; chain copies: 2; label: 3' biotin; hairpin (mfold)"}, "[3]": {"target": "T1, CsrA", "experiment": "EMSA; 1 nM RNA", "settings": "protein: recombinant; tags: N-terminal 6xHis removed by TEV protease; chain copies: 2; label: 5' biotin; partly folded, stem-loops predicted by mfold"}, "[4]": {"target": "T1, CsrA", "experiment": "EMSA; 0.1 nM RNA, 0-640 nM CsrA (Fig 3B); 1 nM RNA in Fig 3C", "settings": "protein: recombinant; tags: N-terminal 6xHis removed by TEV protease; chain copies: 2; label: 3' biotin; two adjacent hairpins (mfold)"}, "[5]": {"target": "T1, CsrA", "experiment": "EMSA; 1 nM RNA, 640 nM CsrA", "settings": "protein: recombinant; tags: N-terminal 6xHis removed by TEV protease; chain copies: 2; label: 3' biotin; two adjacent hairpins (mfold)"}}}
{"binder": "UUAGAUGCAGGGAGCACCUUU (structured_RNA)", "note": "[CsrB-left]", "values": [{"measurement": "binding result", "setting": "[1]", "result": "no binding"}]}
{"binder": "UUUUAGUAGCUGGAAUGCUGCGA (structured_RNA)", "note": "[CsrB-right]", "values": [{"measurement": "binding result", "setting": "[2]", "result": "no binding"}]}
{"binder": "B1", "values": [{"measurement": "binding result", "setting": "[3]", "result": "binds"}]}
{"binder": "UUAGAUGCAGGGAGCACCUUUUAGUAGCUGGAAUGCUGCGA (structured_RNA)", "note": "[CsrB oligo]", "values": [{"measurement": "binding result", "setting": "[4]", "result": "binds"}]}
{"binder": "UUAGAUGCAUAUAGCACCUUUUAGUAGCUAUAAUGCUGCGA (structured_RNA)", "note": "[CsrB-mut (oligo-mut)]", "values": [{"measurement": "binding result", "setting": "[5]", "result": "no binding"}]}
{"binder": "UUAGAUGCAUAUAGCACCUUUUAGUAGCUGGAAUGCUGCGA (structured_RNA)", "note": "[mut-left]", "values": [{"measurement": "binding result", "setting": "[5]", "result": "no binding"}]}
